In article PMC3984498:

Molecular target: V[2]-TRF2ΔBΔM
Test: split reporter

Venus fragment-tagged Ku70 (V[1]-Ku70 / V[2]-Ku70) (from UniProt P12956 1-609) (natural protein)
PCA fluorescence lower than with wild-type TRF2: 45%
